Assay results taken from paper PMC9605866, “Structures of the TMC-1 complex illuminate mechanosensory transduction” (Nature, 2022).

Key:
[1] = target: the molecule itself; test: single-molecule pulldown (SiMPull) with photobleaching step counting; SEC-purified mVenus-tagged TMC-1 complex (Flag peptide elution) diluted 1:200, captured on biotinylated anti-GFP nanobody on streptavidin/PEG slides, TIRF; 20 mM Tris pH 8.0, 150 mM NaCl, 0.02% GDN, 3 mM CaCl2; 600 molecules from 3 movies
[2] = target: the molecule itself; test: cryo-EM structure; native TMC-1 complex in GDN, 20 mM Tris-Cl pH 8.5, 150 mM NaCl, 3 mM CaCl2, on 2 nm carbon-coated grids; one dataset, three classes: expanded, contracted, with ARRD-6

B1: transmembrane channel-like protein 1 (TMC-1) with C-terminal mVenus and 3×Flag tag, from tmc-1::mVenus knock-in worms (natural protein, C. elegans, UniProt D3KZG3 1-1285, looked up)
chain: MQEAARRASLRKEHTPTNEKFGDLSKQDSLGERASSKLTLDDELYDILYAFGETDAFINKGDKQRETDEDGNPLTRQALLERIRQKKEVIGKLRCQAWSMTRKRRTLKLAQKYLEQHESKVSRSHLYMEEMRKRARLMKRSFSNFKTYLIPWESKIKRIESHFGSVVSSYFTFLRWIVFVNIMITLIALVFVVLPETLADSVANEGRFNRTKTRKQIPANERVHADELAVVWHYDGYLRYSPLFYGYYSDDPFLGNKIKYALPLAYFMVTLTIFAYSFFAILRKMAANARMSKLSGSKAEQYIFNWKLFTGWDYTIGNSETASNTVMAVVIKLRESIADIKKDAHGKFRLLQFSLRVFANIIICAMLGFSIYCIIFAVQKSQVQDDGNLFTKNQVPSVVSTITHVFPMIFDLIGKMENYHPRTALRAHLGRVLILYTVNYITLIFALFEKMTALRDRVNSTSTSSSHRTKRQQGGWNPNMQRPPPYASRAEVRQMSDFLAANTRRFQTVSQRTTRSVTTPFTVAPQFGPFNVNNPNAVFHNGTHSTSFESQILGPKALPIFTPPPRKYPGFTPGNVGQQFGGPDFPRNQVYTKSTPLPRVRTKPPWVYTTTHPPLVQNRAMTTTMSKSAKKGNSKNLDDDILLSNETIQMSEAALRRNHDGHNNDICWETIIGQEIVKLVTMDLIFTILSILVIDLFRGLWIKYCSSWWCWDIETTFPEYGEFKVAENVLHIINNQGMIWLGLFFAPLLPAINNIKLIILMYIRGWAVMTCNVPAREIFRASRSSNFYLGILLIWLLLCTLPVGFVIASMSPSRSCGPFARYQHFYTVVTREIEKRVDQTVLSYIRHIASPGVVIPIILFLILIIYFLFSLVRGLREANTDLQAQLVHERTEEKKKIFELAGGKKNKFEKDRDKKRSNDYIPLIEQRRREPWRQYHEMEADHALASDSSEESDINEDEDDERQPLTAYPLRAIETPPETLQVTAFHPSLGSLIENREMEDEESASGDQLPMIHKSVSFQGPSHMQMRQSISTESCSQISRSAIQVATPEEIRALLRPYLEAKYGIPYQHGIKSFPIDVHTPPNNTPSRRSSKYNSFVSLYEHTRDDHKNFVASTIKETDEDPGKSDKKQTSSKDVAPDFMPWPSADEARALREKMKSKTPLMLTKTTVEEKPKGGKSSESEFRPPVPIHRKYNIQTTEEENEEEETDSAPESSKKRFRISVSPTKTIAPASASRAQHKIVSQASSSSSIPHGRQPDPNKKASLVLPPLRAPRVQFDEDDSPRQID
notes: TMC-1, C. elegans, endogenous gene (Wormbase T13G4.3.1); mVenus-3×Flag inserted immediately before the stop codon, PreScission (3C) site between the C terminus of TMC-1 and mVenus; residues M1 to D1285; that sample was afterwards eluted by 3C cleavage and run on SEC) and as imaged in SiMPull (Flag peptide elution, mVenus kept); also called TMC-1-mVenus-3×Flag; mVenus-tagged TMC-1; source: …
[1]
  stoichiometry N: 2

B2: transmembrane channel-like protein 1 (TMC-1), native, after 3C protease elution (natural protein, C. elegans, UniProt D3KZG3 1-1285, looked up)
chain: B1 chain
modifications: N-glycan at N209
notes: TMC-1, C. elegans, endogenous gene (Wormbase T13G4.3.1); residues M1 to D1285; not modelled: M1-P73, S460-N663, L886-D1285; Residues of the 3C site may remain at the C terminus after cleavage; Two copies stand in the complex (two-fold symmetric dimer); also called TMC-1 subunit; TMC-1 protomer; source: endogenous tmc-1 locus, tmc-1::mVenus knock-in worms; purified (anti-Flag M2 resin, 3C protease …)
[2]
  stoichiometry N: 2
